Source: patent publication US20110312897A1, “CATHEPSIN L PROTEOLYTICALLY PROCESSES HISTONE H3 DURING MOUSE EMBRYONIC STEM CELL DIFFERENTIATION” (THE ROCKEFELLER UNIVERSITY, priority 2008, published 2011)

B1: recombinant mouse Cathepsin L: recombinant mouse Cathepsin L enzyme (R&D Systems, # 1515-CY-010) (protein)
chain: TPKFDQTFSAEWHQWKSTHRRLYGTNEEEWRRAIWEKNMRMIQLHNGEYSNGQHGFSMEMNAFGDMTNEEFRQVVNGYRHQKHKKGRLFQEPLMLKIPKSVDWREKGCVTPVKNQGQCGSCWAFSASGCLEGQMFLKTGKLISLSEQNLVDCSHAQGNQGCNGGLMDFAFQYIKENGGLDSEESYPYEAKDGSCKYRAEFAVANDTGFVDIPQQEKALMKAVATVGPISVAMDASHPSLQFYSSGIYYEPNCSSKNLDHGVLLVGYGYEGTDSNKNKYWLVKNSWGSEWGMEGYIKIAKDRDNHCGLATAASYPVVN
B2: Cathepsin K: recombinant Cathepsin K (Calbiochem Cat. No. 342001) (protein, UniProt P43235 115-329, looked up)
Cathepsin K: APDSVDYRKKGYVTPVKNQGQCGSCWAFSSVGALEGQLKKKTGKLLNLSPQNLVDCVSENDGCGGGYMTNAFQYVQKNRGIDSEDAYPYVGQEESCMYNPTGKAAKCRGYREIPEGNEKALKRAVARVGPVSVAIDASLTSFQFYSKGVYYDESCNSDNLNHAVLAVGYGIQKGNKHWIIKNSWGENWGNKGYILMARNKNNACGIANLASFPKM

Test system: rH3-HIS
Assay: H3 cleavage assay with recombinant cathepsins
Assay type: biochemical, mouse
Description: Extracts were incubated in buffer (10 mM HEPES, 10 mM KCl, 1.5 mM MgCl2, 0.34M sucrose, 10% glycerol, 5 mM β-mercaptoethanol, all final) with 0.1 μg/μl rH3-HIS (purified from E. coli) and incubated at 37° C. for 1-3 hours. Reactions were stopped by addition of 5×SDS sample buffer and boiling; results were analyzed by immunoblotting with HIS-HRP and/or H3.cs1 antibody. For MS analysis, reactions were quenched by addition of 0.1% (final) TFA. rCathepsin L (R&D Systems, # 1515-CY-010), rCathepsin B (R&D Systems Cat No. BAF965), and rCathepsin K (Calbiochem Cat. No. 342001) were purchased from commercial sources and tested in the assay with rH3-HIS.
To further validate the identification of Cathepsin L as an H3 protease, recombinant mouse Cathepsin L enzyme was tested in the H3 cleavage assay (FIG. 5). […] To further characterize the sites of proteolytic cleavage, the reaction products of rCathepsin L and rH3-HIS were analyzed by MS. […] Also observed in both reactions were five of the six complementary N-terminal peptides generated by rCathepsin L cleavage of H3 (left), and their abundances correlated, as expected, with that of their C-terminal counterparts. […] In addition, the relative abundances of the in vivo H3 cleavage sites and those produced by Cathepsin L in vitro are highly correlative. […] Taken together, the above data support the conclusion that Cathepsin L is capable of generating all of the histone H3.2 fragments observed at day three following induction of ESC differentiation by retinoic acid.
Other cathepsin family members were then tested in the H3 cleavage assay. rCathepsin B, one of the most abundant lysosomal proteases, and rCathepsin K, which is reported to have a significant preference for leucine in the P2 position of its substrates much like Cathepsin L, were chosen to be tested first (Cathepsin S also shares this preference but was not found to have significant expression in our ESC model). Following pre-activation the recombinant enzymes, Cathepsins B, K, and L were incubated with rH3-HIS at both pH 5.5. and pH 7.5, and the reactions were then analyzed by immunoblotting with both HIS and H3.cs1 antibodies.

[1] = pre-activated enzymes, pH 5.5 and pH 7.5

| Molecule | cleavage of recombinant histone H3 (pH 5.5 and pH 7.4) | generation of epitope recognized by H3.cs1 antibody (pH 5.5 and pH 7.4) | rH3-HIS cleavage pattern [1] | H3.cs1 epitope production [1] |
| --- | --- | --- | --- | --- |
| B1 | able to cleave recombinant histone H3 | created the specific epitope | cleaves rH3-HIS robustly |  |
| B2 |  |  |  | less abundant |
